Results: patent US9802997B2, “Peptides and combination of peptides for use in immunotherapy against various tumors” (immatics biotechnologies GmbH, priority 2015, dated 2017)

The substances below were run on CD8+ T cells of healthy HLA-A*02 donors (assay: In vitro immunogenicity: in vitro T-cell priming with aAPCs loaded with peptide/MHC complexes and anti-CD28 antibody, pMHC multimer readout). Settings: HLA-A*02 restricted peptides; percentage of positive wells among evaluable.
Type: cell-based, human
Text: In order to obtain information regarding the immunogenicity of the TUMAPs of the present invention, the inventors performed investigations using an in vitro T-cell priming assay based on repeated stimulations of CD8+ T cells with artificial antigen presenting cells (aAPCs) loaded with peptide/MHC complexes and anti-CD28 antibody.
In order to perform in vitro stimulations by artificial antigen presenting cells loaded with peptide-MHC complex (pMHC) and anti-CD28 antibody, the inventors first isolated CD8+ T cells from fresh HLA-A*02 leukapheresis products via positive selection using CD8 microbeads (Miltenyi Biotec, Bergisch-Gladbach, Germany) of healthy donors obtained from the University clinics Mannheim, Germany, after informed consent. PBMCs and isolated CD8+ lymphocytes were incubated in T-cell medium (TCM) until use consisting of RPMI-Glutamax (Invitrogen, Karlsruhe, Germany) supplemented with 10% heat inactivated human AB serum (PAN-Biotech, Aidenbach, Germany), 100 U/ml Penicillin/100 μg/ml Streptomycin (Cambrex, Cologne, Germany), 1 mM sodium pyruvate (CC Pro, Oberdorla, Germany), 20 μg/ml Gentamycin (Cambrex). 2.5 ng/ml IL-7 (PromoCell, Heidelberg, Germany) and 10 U/ml IL-2 (Novartis Pharma, Nürnberg, Germany) were also added to the TCM at this step. Generation of pMHC/anti-CD28 coated beads, T-cell stimulations and readout was performed in a highly defined in vitro system using four different pMHC molecules per stimulation condition and 8 different pMHC molecules per readout condition.
The purified co-stimulatory mouse IgG2a anti human CD28 Ab 9.3 (Jung et al., 1987) was chemically biotinylated using Sulfo-N-hydroxysuccinimidobiotin as recommended by the manufacturer (Perbio, Bonn, Germany). Beads used were 5.6 μm diameter streptavidin coated polystyrene particles (Bangs Laboratories, Illinois, USA).
pMHC used for positive and negative control stimulations were A*0201/MLA-001 (peptide […] (SEQ ID NO. 289) from modified Melan-A/MART-1) and A*0201/DDX5-001 ([…] from DDX5, SEQ ID NO. 290), respectively.
800.000 beads/200 μl were coated in 96-well plates in the presence of 4×12.5 ng different biotin-pMHC, washed and 600 ng biotin anti-CD28 were added subsequently in a volume of 200 μl. Stimulations were initiated in 96-well plates by co-incubating 1×10^6 CD8+ T cells with 2×10^5 washed coated beads in 200 μl TCM supplemented with 5 ng/ml IL-12 (PromoCell) for 3 days at 37° C. Half of the medium was then exchanged by fresh TCM supplemented with 80 U/ml IL-2 and incubating was continued for 4 days at 37° C. This stimulation cycle was performed for a total of three times. For the pMHC multimer readout using 8 different pMHC molecules per condition, a two-dimensional combinatorial coding approach was used as previously described (Andersen et al., 2012) with minor modifications encompassing coupling to 5 different fluorochromes. Finally, multimeric analyses were performed by staining the cells with Live/dead near IR dye (Invitrogen, Karlsruhe, Germany), CD8-FITC antibody clone SK1 (BD, Heidelberg, Germany) and fluorescent pMHC multimers. For analysis, a BD LSRII SORP cytometer equipped with appropriate lasers and filters was used. Peptide specific cells were calculated as percentage of total CD8+ cells. Evaluation of multimeric analysis was done using the FlowJo software (Tree Star, Oregon, USA). In vitro priming of specific multimer+CD8+ lymphocytes was detected by comparing to negative control stimulations.

Substance	Wells positive [%]
29 (KMISAIPTL; listed as Homo sapiens) [compound 29]	+ (<20% = +)
34 (TLNTLDINL; listed as Homo sapiens) [compound 34]	++++ (>=70% = ++++)
263 (SIIEYLPTL; listed as Homo sapiens) [compound 263]	+ (<20% = +)
27 (GLLGKVTSV; listed as Homo sapiens) [compound 27]	+ (<20% = +)

Same assay, conditions: percentage of positive donors among evaluable; HLA-A*02 healthy donors, three stimulation cycles

Substance	in vitro immunogenicity: donors
288 (SLYKGLLSV; listed as Homo sapiens) [compound 288]	++++ (>=70% = ++++)

Same assay, conditions: percentage of positive wells among evaluable; HLA-A*02 healthy donors, three stimulation cycles

Substance	in vitro immunogenicity: wells
287 (KIQEILTQV; listed as Homo sapiens) [compound 287]	+ (<20% = +)

What follows are substances tested against HLA-A*02:01 (Homo sapiens, UniProt P04439, D140Y/D185E/D98H/E176V/E277Q/G131W/G231S/I119V/I121R/I166T/I218V/L300P/L318F/N151K/N90K/P208A/P217A/Q86G/Q94H/R138H/R169H/T345S) (assay: MHC binding assay (UV-ligand exchange, beta2m ELISA)). Settings: binding to HLA-A*02:01, β2m ELISA.
How it was run: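 Peptide–MHC complexes formed by UV-ligand exchange, cleaving a UV-sensitive peptide so the test peptide can bind. Exchange yield measured by ELISA: complexes captured on streptavidin-coated wells, diluted 100-fold, detected with HRP anti-β2m (1 h, 37 °C) and TMB at 450 nm, against refolded HLA-A*02:01/MLA-001 standards (15-500 ng/ml).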

Substance	Peptide exchange (MHC class I binding score, peptide exchange yield)
29 (KMISAIPTL; listed as Homo sapiens) [compound 29]	++ (≧20% = ++)
34 (TLNTLDINL; listed as Homo sapiens) [compound 34]	+++ (≧50 = +++)
263 (SIIEYLPTL; listed as Homo sapiens) [compound 263]	+++ (≧50 = +++)
27 (GLLGKVTSV; listed as Homo sapiens) [compound 27]	+++ (≧50 = +++)
19 (KVFELDLVTL; listed as Homo sapiens) [compound 19]	++ (≧20% = ++)
274 (TLYNPERTITV; listed as Homo sapiens) [compound 274]	+++ (≧50 = +++)
95 (KLIDEDEPLFL; listed as Homo sapiens) [compound 95]	+++ (≧50 = +++)
62 (SLVENIHVL; listed as Homo sapiens) [compound 62]	+++ (≧50 = +++)
107 (RVLPGQAVTGV; listed as Homo sapiens) [compound 107]	++ (≧20% = ++)
282 (SLYALHVKA; listed as Homo sapiens) [compound 282]	++ (≧20% = ++)
53 (AQHLSTLLL; listed as Homo sapiens) [compound 53]	+ (≧10% = +)
208 (HLNNDRNPL; listed as Homo sapiens) [compound 208]	++ (≧20% = ++)
26 (VLDGKVAVV; listed as Homo sapiens) [compound 26]	+++ (≧50 = +++)
75 (ALLDGALQL; listed as Homo sapiens) [compound 75]	+++ (≧50 = +++)
55 (HLFDKIIKI; listed as Homo sapiens) [compound 55]	+++ (≧50 = +++)
71 (HMSGKLTNV; listed as Homo sapiens) [compound 71]	++ (≧20% = ++)
57 (TLYPGRFDYV; listed as Homo sapiens) [compound 57]	++ (≧20% = ++)
237 (ALLEQTGDMSL; listed as Homo sapiens) [compound 237]	+++ (≧50 = +++)
64 (SLYAGSNNQV; listed as Homo sapiens) [compound 64]	++ (≧20% = ++)
117 (TLLEGISRA; listed as Homo sapiens) [compound 117]	++ (≧20% = ++)
217 (LLWPSSVPA; listed as Homo sapiens) [compound 217]	+++ (≧50 = +++)
139 (IILENIQSL; listed as Homo sapiens) [compound 139]	+++ (≧50 = +++)
174 (ALYSGDLHAA; listed as Homo sapiens) [compound 174]	++ (≧20% = ++)
124 (ALLLRLFTI; listed as Homo sapiens) [compound 124]	++ (≧20% = ++)

Substance	Peptide exchange (MHC class I binding score, peptide exchange yield)
265 (FLLDKPQDLSI; listed as Homo sapiens) [compound 265]	+++ (≧50 = +++)
105 (AMLASQTEA; listed as Homo sapiens) [compound 105]	++ (≧20% = ++)
159 (QLGPVPVTI; listed as Homo sapiens) [compound 159]	+++ (≧50 = +++)
33 (TLDRNSLYV; listed as Homo sapiens) [compound 33]	++ (≧20% = ++)
38 (VLQQESNFL; listed as Homo sapiens) [compound 38]	++ (≧20% = ++)
200 (IMPTFDLTKV; listed as Homo sapiens) [compound 200]	+++ (≧50 = +++)
45 (FLPVSVVYV; listed as Homo sapiens) [compound 45]	+++ (≧50 = +++)
20 (ALVEKGEFAL; listed as Homo sapiens) [compound 20]	++ (≧20% = ++)
164 (MLIIRVPSV; listed as Homo sapiens) [compound 164]	+++ (≧50 = +++)
158 (YLDPLWHQL; listed as Homo sapiens) [compound 158]	+++ (≧50 = +++)
249 (YLYQILQGI; listed as Homo sapiens) [compound 249]	+++ (≧50 = +++)
10 (QLIEKNWLL; listed as Homo sapiens) [compound 10]	+++ (≧50 = +++)
134 (SLYKSFLQL; listed as Homo sapiens) [compound 134]	++ (≧20% = ++)
206 (GLDAFRIFL; listed as Homo sapiens) [compound 206]	++++ (≧75% = ++++)
136 (LLWDAPAKC; listed as Homo sapiens) [compound 136]	+++ (≧50 = +++)
211 (LLTTVLINA; listed as Homo sapiens) [compound 211]	+++ (≧50 = +++)
256 (FLNDIFERI; listed as Homo sapiens) [compound 256]	+++ (≧50 = +++)
24 (KVWSDVTPL; listed as Homo sapiens) [compound 24]	+++ (≧50 = +++)
268 (SLDKDIVAL; listed as Homo sapiens) [compound 268]	++ (≧20% = ++)
177 (ALINVLNAL; listed as Homo sapiens) [compound 177]	+++ (≧50 = +++)
91 (LLPSIFLMV; listed as Homo sapiens) [compound 91]	++ (≧20% = ++)
283 (ALSELLQQV; listed as Homo sapiens) [compound 283]	+++ (≧50 = +++)
173 (RLIDIYKNV; listed as Homo sapiens) [compound 173]	+++ (≧50 = +++)
140 (FLDSQITTV; listed as Homo sapiens) [compound 140]	+++ (≧50 = +++)
